# Measured values taken from US20070149456A1, “Epithelial sodium channel inhibiting agents and uses therefor” (University of Pittsburgh, priority 2005, published 2007).
# Entries after “also recorded” stand apart in the source; their conditions may differ.
# Key:
# [1] = biological target: T1, endogenous ENaC in HAE cells (Homo sapiens, UniProt P37088+P51168+P51170); assay: Amiloride-sensitive short circuit current in primary human airway epithelial (HAE) cell monolayers, Ussing chamber; format: cell-based; conditions: HAE
# T1 construct: endogenous in cells; host or cells: primary human airway (bronchial) epithelial cells from transplant or donor lungs
# T1 sequence (P37088 1-178): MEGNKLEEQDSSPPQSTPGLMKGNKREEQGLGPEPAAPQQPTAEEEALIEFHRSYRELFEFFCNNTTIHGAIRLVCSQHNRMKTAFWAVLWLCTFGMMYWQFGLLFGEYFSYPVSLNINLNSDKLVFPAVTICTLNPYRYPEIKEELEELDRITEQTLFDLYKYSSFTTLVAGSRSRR
# T1 sequence (P37088 205-669): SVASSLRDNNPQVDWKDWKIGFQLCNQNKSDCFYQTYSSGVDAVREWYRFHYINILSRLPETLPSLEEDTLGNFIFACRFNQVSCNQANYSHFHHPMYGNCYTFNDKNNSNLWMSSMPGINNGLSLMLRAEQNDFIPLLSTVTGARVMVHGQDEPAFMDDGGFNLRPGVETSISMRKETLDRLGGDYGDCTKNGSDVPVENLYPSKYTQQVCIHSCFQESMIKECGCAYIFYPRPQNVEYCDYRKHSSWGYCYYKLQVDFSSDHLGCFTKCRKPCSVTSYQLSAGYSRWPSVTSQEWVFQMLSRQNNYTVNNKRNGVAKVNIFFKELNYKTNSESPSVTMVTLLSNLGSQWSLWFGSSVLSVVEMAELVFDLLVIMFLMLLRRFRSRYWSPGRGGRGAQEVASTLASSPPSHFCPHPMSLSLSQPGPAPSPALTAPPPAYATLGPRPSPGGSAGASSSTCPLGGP
# T1 sequence (P51168 whole entry): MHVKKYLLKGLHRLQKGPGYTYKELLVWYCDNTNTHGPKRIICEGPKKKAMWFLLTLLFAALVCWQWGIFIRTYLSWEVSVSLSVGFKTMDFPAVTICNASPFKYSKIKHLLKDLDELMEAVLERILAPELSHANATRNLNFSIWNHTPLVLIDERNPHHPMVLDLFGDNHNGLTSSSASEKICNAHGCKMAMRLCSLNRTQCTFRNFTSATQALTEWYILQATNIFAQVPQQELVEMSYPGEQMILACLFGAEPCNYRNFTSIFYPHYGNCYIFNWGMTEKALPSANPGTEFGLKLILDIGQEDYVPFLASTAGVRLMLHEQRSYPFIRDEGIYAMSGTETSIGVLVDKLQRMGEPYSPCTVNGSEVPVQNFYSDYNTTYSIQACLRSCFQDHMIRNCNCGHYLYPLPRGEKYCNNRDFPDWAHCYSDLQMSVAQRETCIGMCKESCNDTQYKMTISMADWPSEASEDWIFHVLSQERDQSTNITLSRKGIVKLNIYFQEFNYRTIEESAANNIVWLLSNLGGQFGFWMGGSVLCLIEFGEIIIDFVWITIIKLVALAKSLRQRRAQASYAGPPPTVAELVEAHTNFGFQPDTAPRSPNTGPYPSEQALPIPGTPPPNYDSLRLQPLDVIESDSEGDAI
# T1 sequence (P51170 1-138): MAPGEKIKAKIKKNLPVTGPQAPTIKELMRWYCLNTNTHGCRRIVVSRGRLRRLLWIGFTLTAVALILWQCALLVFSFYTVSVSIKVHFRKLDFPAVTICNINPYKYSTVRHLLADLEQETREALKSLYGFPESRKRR
# T1 sequence (P51170 182-649): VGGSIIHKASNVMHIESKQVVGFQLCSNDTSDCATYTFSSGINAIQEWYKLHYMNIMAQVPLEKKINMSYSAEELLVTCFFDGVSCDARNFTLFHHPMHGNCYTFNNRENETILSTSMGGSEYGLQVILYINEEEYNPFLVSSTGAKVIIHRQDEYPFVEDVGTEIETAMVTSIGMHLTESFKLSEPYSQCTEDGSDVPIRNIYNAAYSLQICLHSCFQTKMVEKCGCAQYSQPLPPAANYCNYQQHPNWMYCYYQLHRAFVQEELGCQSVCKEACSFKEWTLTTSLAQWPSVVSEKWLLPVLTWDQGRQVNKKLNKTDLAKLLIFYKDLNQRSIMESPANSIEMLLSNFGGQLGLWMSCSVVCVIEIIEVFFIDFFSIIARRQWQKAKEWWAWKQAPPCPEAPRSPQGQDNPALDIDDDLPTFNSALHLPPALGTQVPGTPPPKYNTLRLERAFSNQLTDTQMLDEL
# Source text: Primary Cultures of HAE Cells—HAE cells were obtained from excess pathological tissue remaining after lung transplantation or from organ donor lungs deemed not suitable for transplantation under a protocol approved by the University of Pittsburgh […] Review Board. All cells were isolated from second through sixth generation bronchi and grown on permeable Transwell supports (Coming Inc.) as previously described (Devor, D. C., and Pilewski, J. M. (1999), UTP inhibits Na^+ absorption in wild-type and DeltaF508 CFTR-expressing human bronchial epithelia, Am. J. Physiol. 276, C827-C837 31. ).
# (§1) Short Circuit Current Measurements—Cell culture inserts were mounted in modified Ussing chambers (Harvard Apparatus, Holliston, Mass.), and the monolayers were continuously short-circuited with a voltage/current clamp system (Physiologic Instruments, San Diego, Calif.). A 2-mV bipolar pulse was applied periodically to measure the resistance of the monolayer. As previously described by Bridges et al. (Bridges, R. J., Newton, B. B., Pilewski, J. M., Devor, D. C., Poll, C. T., and Hall, R. L. (2001), Na+ transport in normal and CF human bronchial epithelial cells is inhibited by BAY 39-9437, Am. J. Physiol. 281, L16-L23 32, Na^+ transport in normal and CF human bronchial epithelial cells is inhibited by BAY 39-9437), the bath solution contained (in mM) 120 NaCl, 25 NaHCO3, 3.3 KH2PO4, 0.8 K2HPO4, 1.2 MgCl2, 1.2 CaCl2, and 10 glucose. The pH of this solution was 7.4 when gassed with a mixture of 95% O2-5% CO2 at 37° C.
# Primary cultures of HAE cells grown on permeable membrane supports and mounted in modified Ussing chambers were continuously short-circuited by a voltage clamp amplifier (Physiologic Instruments, San Diego, Calif.). Monolayers were exposed to increasing concentrations of either the γ-peptide (closed circles) or a scrambled peptide (open circles). […] (n=8-9).
# Vectors and Cell Culture—Wild-type, C-terminal and double epitope tagged mouse ENaC subunit cDNAs were previously described (Hughey, R. P., Mueller, G. M., Bruns, J. B., Kinlough, C. L., Poland, P. A., Harkleroad, K. L., Carattino, M. D., and Kleyman, T. R. (2003) J Biol Chem 278, 37073-37082 and Ahn, Y. J., Brooker, D. R., Kosari, F., Harte, B. J., Li, J., Mackler, S. A., and Kleyman, T. R. (1999), Cloning and functional expression of the mouse epithelial sodium channel, Am J Physiol 277, F121-129). The γ subunit mutations were generated in pcDNA3.1 (+) using a standard two-step PCR method. A cDNA clone (IMAGE #: 3600399) encoding full length mouse prostasin was obtained from Open Biosystems (Huntsville, Ala.) and sub-cloned into pcDNA3.1 (+) (Invitrogen, Carlsbad, Calif.). MDCK type 1 cells were a gift from Barry M. Gumbiner (Memorial Sloan-Kettering Cancer Center, New York) and were cultured as previously described (Lavelle, J. P., Negrete, H. O., Poland, P. A., Kinlough, C. L., Meyers, S. D., Hughey, R. P., and Zeidel, M. L. (1997), Low permeabilities of MDCK cell monolayers: a model barrier epithelium, Am J Physiol 273, F67-75). CCD (mpkCCDc14) cells were a gift from Alain Vandewalle (Institut National de la Santéet de la Recherche Médicale, Paris, France) and were cultured as previously described (Bens, M., Vallet, V., Cluzeaud, F., Pascual-Letallec, L., Kahn, A., Rafestin-Oblin, M. E., Rossier, B. C., and Vandewalle, A. (1999) J Am Soc Nephrol 10, 923-934). HAE cells were isolated and cultured as described (Devor, D. C., Bridges, R. J., and Pilewski, J. M. (2000), Pharmacological modulation of ion transport across wild-type and DeltaF508 CFTR-expressing human bronchial epithelia, Am J Physiol Cell Physiol 279, C461-479). […]
# [2] = biological target: T2, endogenous ENaC in mpkCCDc14 cells (Mus musculus, UniProt Q61180+Q9WU38+Q9WU39); assay: Amiloride-sensitive short circuit current in mpkCCDc14 monolayers, Ussing chamber; format: cell-based; conditions: peptide 50 μM
# T2 construct: endogenous ENaC in a mouse cortical collecting duct (mpkCCDc14) cell line; endogenous in cells; host or cells: mpkCCDc14 mouse cortical collecting duct cell line
# [3] = biological target: T2, endogenous ENaC in mpkCCDc14 cells; assay: as above; format: cell-based; conditions: mpkCCDc14, increasing concentrations of peptide
# Method: mpkCCDc14 Cell Culture—mpkCCDc14 cells were grown as previously reported (Bens, M., Vallet, V., Cluzeaud, F., Pascual-Letallec, L., Kahn, A., Rafestin-Oblin, M. E., Rossier, B. C., and Vandewalle, A. (1999), Corticosteroid-dependent sodium transport in a novel immortalized mouse collecting duct principal cell line, J. Am. Soc. Nephrol. 10, 923-934). mpkCCDc14 cells were subcultured onto permeable filter supports coated with collagen (0.4-μm pore size, 1-cm^2 surface area, Snapwell filters; Coming Inc., Acton, Mass.). Cells were kept on filters for at least 4 days in defined medium (Bens, M., Vallet, V., Cluzeaud, F., Pascual-Letallec, L., Kahn, A., Rafestin-Oblin, M. E., Rossier, B. C., and Vandewalle, A. (1999) J. Am. Soc. Nephrol. 10, 923-934 30) that was changed every second day. At least 24 h prior to the experiments, the culture medium was replaced with a minimal medium (without drugs or hormones) that contained only Dulbecco's modified Eagle's medium and Ham's F-12.
# as §1
# (FIG. 6A) mpkCCDc14cells cultured on permeable membrane supports and mounted in a modified Ussing chamber were continuously short-circuited by a voltage clamp amplifier (Physiologic Instruments, San Diego, Calif.). Transepithelial resistance was monitored by applying a 4 mV bipolar pulse every 60 seconds. Where indicated, a 43 residue peptide corresponding to E144-K186 of mouse γ-ENaC (γ-peptide) was added to the apical chamber at a final concentration of 3 μM. […] Data presented as mean +/−standard error (n=8).
# Vectors and Cell Culture—Wild-type, C-terminal and double epitope tagged mouse ENaC subunit cDNAs were previously described (Hughey, R. P., Mueller, G. M., Bruns, J. B., Kinlough, C. L., Poland, P. A., Harkleroad, K. L., Carattino, M. D., and Kleyman, T. R. (2003) J Biol Chem 278, 37073-37082 and Ahn, Y. J., Brooker, D. R., Kosari, F., Harte, B. J., Li, J., Mackler, S. A., and Kleyman, T. R. (1999), Cloning and functional expression of the mouse epithelial sodium channel, Am J Physiol 277, F121-129). The γ subunit mutations were generated in pcDNA3.1 (+) using a standard two-step PCR method. A cDNA clone (IMAGE #: 3600399) encoding full length mouse prostasin was obtained from Open Biosystems (Huntsville, Ala.) and sub-cloned into pcDNA3.1 (+) (Invitrogen, Carlsbad, Calif.). MDCK type 1 cells were a gift from Barry M. Gumbiner (Memorial Sloan-Kettering Cancer Center, New York) and were cultured as previously described (Lavelle, J. P., Negrete, H. O., Poland, P. A., Kinlough, C. L., Meyers, S. D., Hughey, R. P., and Zeidel, M. L. (1997), Low permeabilities of MDCK cell monolayers: a model barrier epithelium, Am J Physiol 273, F67-75). CCD (mpkCCDc14) cells were a gift from Alain Vandewalle (Institut National de la Santéet de la Recherche Médicale, Paris, France) and were cultured as previously described (Bens, M., Vallet, V., Cluzeaud, F., Pascual-Letallec, L., Kahn, A., Rafestin-Oblin, M. E., Rossier, B. C., and Vandewalle, A. (1999) J Am Soc Nephrol 10, 923-934).
# [4] = biological target: endogenous ENaC in the mouse cortical collecting duct cell line mpkCCDc14 (mouse, UniProt Q9WU38 1-638); assay: cell-based or functional assay
# [5] = biological target: endogenous ENaC in primary cultures of human airway epithelial (HAE) cells (human, UniProt P51168 1-640); assay: cell-based or functional assay
# Chain of endogenous ENaC in primary cultures of human airway epithelial (HAE) cells (chain, as listed by the source, chain 1 of 3): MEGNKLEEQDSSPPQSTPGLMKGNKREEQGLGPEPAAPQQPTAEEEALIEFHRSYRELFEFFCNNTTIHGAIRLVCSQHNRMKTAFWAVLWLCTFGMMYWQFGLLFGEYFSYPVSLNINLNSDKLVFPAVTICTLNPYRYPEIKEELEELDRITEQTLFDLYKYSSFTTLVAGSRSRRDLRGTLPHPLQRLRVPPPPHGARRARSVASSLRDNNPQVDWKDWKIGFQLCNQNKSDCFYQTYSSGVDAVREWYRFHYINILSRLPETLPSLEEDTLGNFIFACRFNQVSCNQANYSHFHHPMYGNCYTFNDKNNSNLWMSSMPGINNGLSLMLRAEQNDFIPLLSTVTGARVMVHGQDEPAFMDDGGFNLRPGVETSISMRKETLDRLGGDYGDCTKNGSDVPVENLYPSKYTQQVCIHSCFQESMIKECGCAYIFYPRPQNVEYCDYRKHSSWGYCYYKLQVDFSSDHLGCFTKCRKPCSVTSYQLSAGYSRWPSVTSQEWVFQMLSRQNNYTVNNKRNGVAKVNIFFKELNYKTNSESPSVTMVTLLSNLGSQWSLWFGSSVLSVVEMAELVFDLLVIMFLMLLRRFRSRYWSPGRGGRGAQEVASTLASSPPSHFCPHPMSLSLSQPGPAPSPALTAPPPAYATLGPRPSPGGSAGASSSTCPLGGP
# Chain of endogenous ENaC in primary cultures of human airway epithelial (HAE) cells (P51168 whole entry, chain 2 of 3): as the sequence (P51168 whole entry) above
# Chain of endogenous ENaC in primary cultures of human airway epithelial (HAE) cells (chain, as listed by the source, chain 3 of 3): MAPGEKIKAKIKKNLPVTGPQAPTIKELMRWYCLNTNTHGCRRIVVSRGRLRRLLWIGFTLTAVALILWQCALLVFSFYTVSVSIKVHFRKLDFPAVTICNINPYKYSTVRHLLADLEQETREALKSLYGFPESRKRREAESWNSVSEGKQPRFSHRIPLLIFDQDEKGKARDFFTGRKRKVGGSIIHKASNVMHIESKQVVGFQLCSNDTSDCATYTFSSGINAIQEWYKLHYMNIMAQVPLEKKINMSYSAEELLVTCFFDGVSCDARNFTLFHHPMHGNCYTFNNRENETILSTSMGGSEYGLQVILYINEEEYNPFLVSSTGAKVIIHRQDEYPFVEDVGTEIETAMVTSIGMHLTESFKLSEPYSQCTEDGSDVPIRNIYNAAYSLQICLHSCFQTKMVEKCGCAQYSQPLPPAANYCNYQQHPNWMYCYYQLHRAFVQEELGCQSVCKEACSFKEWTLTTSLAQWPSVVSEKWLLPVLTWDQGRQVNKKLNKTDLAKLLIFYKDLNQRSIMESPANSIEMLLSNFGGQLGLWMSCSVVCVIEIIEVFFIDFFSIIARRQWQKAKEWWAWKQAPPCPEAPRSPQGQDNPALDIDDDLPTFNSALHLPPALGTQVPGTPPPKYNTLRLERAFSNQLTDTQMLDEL
# [6] = biological target: wild-type αβγ mouse epithelial sodium channel (ENaC) expressed in Xenopus oocytes (mouse, UniProt Q9WU38 1-638); assay: cell-based or functional assay
molecule,measurement,setting,value
"PLTQPRPRLADHNPLSARRRPLPAGP (Ac-PLTQPRPRLADHNPLSARRRPLPAGP-NH2) [SCR, reference compound]",inhibition of Isc,[1]; peptide 50 μM,did not inhibit
same,inhibition of Isc,[2],did not inhibit
"FKGFVGKEALREILTFWLRFNNTEMDSKPLRTRANPPSKGGRE (Ac-FKGFVGKEALREILTFWLRFNNTEMDSKPLRTRANPPSKGGRE-NH2) [scrambled peptide, reference compound]",inhibition of amiloride sensitive short circuit currents,[1]; increasing concentrations of peptide,minimal effect; also recorded: failed to inhibit; also recorded: only a slight inhibition
same,inhibition of amiloride sensitive short circuit currents,[3],minimal effect; also recorded: failed to inhibit
"Ac-EAGSMRSTWEGTPPRFLNLIPLLVFNENEKGKARDFFTGRKRK-NH2 [γ-43, synthetic 43-residue peptide corresponding to the tract Glu144-Lys186 of mouse γ ENaC]","IC50, inhibition of amiloride sensitive short circuit currents in mpkCCDc14 cells (FIG. 6B)",[4],3200 nM
same,"IC50, inhibition of short circuit currents in mouse CCD cells (FIG. 18B)",[4],3200 nM
same,"IC50, inhibition of amiloride sensitive short circuit currents in primary HAE cells (FIG. 7)",[5],1900 nM
same,"IC50, inhibition of short circuit currents in primary cultures of HAE cells (FIG. 18C)",[5],2000 nM
Ac-DLRGALPHPLQRLRTPPPPNPARSAR-NH2,"IC50, inhibition of amiloride-sensitive whole cell Na+ current in oocytes, holding potential -20 mV",[6],2900 nM
same,"IC50, inhibition of amiloride-sensitive whole cell Na+ current in oocytes, holding potential -100 mV",[6],2900 nM
same,"IC50, inhibition of amiloride-sensitive whole cell Na+ current, two-electrode voltage clamp in Xenopus oocytes (FIG. 3A; holding potential -60 mV, value repeated in the same paragraph)",[6],2800 nM
same,"IC50, inhibition of amiloride-sensitive short circuit current (Isc) in mpkCCDc14 monolayers (FIG. 5B)",[4],100000 nM
same,"IC50, inhibition of amiloride-sensitive short circuit current (Isc) in HAE monolayers (FIG. 5A)",[5],46000 nM
LPHPLQRL [8-residue fragment LPHPLQRL of α-26],"IC50, inhibition of mouse ENaCs expressed in oocytes",[6],~1000 nM
